Results published in the supplement of paper PMC9112550, “Optimization of the antimicrobial peptide Bac7 by deep mutational scanning” (BMC Biology, 2022).

tested on: Escherichia coli TOP10; test: shrunken log2 fold change of peptide-encoding DNA abundance (4.5 h post-induction vs induction); higher = less antimicrobial activity (less host growth inhibition); details: time post-induction: 4.5 h; library: site-saturation at positions 5, 18, 19, 20
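Note: peptides expressed intracellularly from a pBAD plasmid library in pooled LB shake-flask culture, induced with 0.3% L-arabinose, DNA abundance read by NGS, three biological replicates, DESeq2 with apeglm shrinkage.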

Sequence | shrunken log2 fold change
RRIRSRPPRLPRPRPRPPSNPRP | -0.00786
RRIRSRPPRLPRPRPRPPTDPRP | 0.429
RRIRSRPPRLPRPRPRPPTRPRP | 0.651
RRIRSRPPRLPRPRPRPPYNPRP | -0.602
RRIRSRPPRLPRPRPRPQALPRP | 0.0266
RRIRSRPPRLPRPRPRPQDFPRP | -0.161
RRIRSRPPRLPRPRPRPQDNPRP | -0.362
RRIRSRPPRLPRPRPRPQDPPRP | 0.122
RRIRSRPPRLPRPRPRPQGIPRP | 0.0897
RRIRSRPPRLPRPRPRPQGMPRP | -0.124
RRIRSRPPRLPRPRPRPQGRPRP | -0.0801
RRIRSRPPRLPRPRPRPQHRPRP | -0.222
RRIRSRPPRLPRPRPRPQIAPRP | -0.102
RRIRSRPPRLPRPRPRPQINPRP | -0.46
RRIRSRPPRLPRPRPRPQIRPRP | 0.267
RRIRSRPPRLPRPRPRPQKCPRP | 0.0984
RRIRSRPPRLPRPRPRPQLYPRP | -0.071
RRIRSRPPRLPRPRPRPQMMPRP | -0.143
RRIRSRPPRLPRPRPRPQMRPRP | 0.691
RRIRSRPPRLPRPRPRPQNAPRP | -0.427
RRIRSRPPRLPRPRPRPQNMPRP | -0.268
RRIRSRPPRLPRPRPRPQNTPRP | -0.522

Sequence | shrunken log2 fold change
RRIRSRPPRLPRPRPRPQNWPRP | 0.269
RRIRSRPPRLPRPRPRPQPAPRP | 0.0373
RRIRSRPPRLPRPRPRPQPCPRP | 2.29
RRIRSRPPRLPRPRPRPQPMPRP | 0.128
RRIRSRPPRLPRPRPRPQQDPRP | -0.164
RRIRSRPPRLPRPRPRPQQHPRP | 0.0668
RRIRSRPPRLPRPRPRPQRTPRP | -0.036
RRIRSRPPRLPRPRPRPQSIPRP | -0.263
RRIRSRPPRLPRPRPRPQTNPRP | -0.032
RRIRSRPPRLPRPRPRPQVHPRP | -0.012
RRIRSRPPRLPRPRPRPQVIPRP | 0.00733
RRIRSRPPRLPRPRPRPQWTPRP | -0.0105
RRIRSRPPRLPRPRPRPQWWPRP | 0.0138
RRIRSRPPRLPRPRPRPRAVPRP | 0.582
RRIRSRPPRLPRPRPRPRCIPRP | -0.155
RRIRSRPPRLPRPRPRPRCRPRP | 0.385
RRIRSRPPRLPRPRPRPRCVPRP | 0.116
RRIRSRPPRLPRPRPRPREDPRP | 0.432
RRIRSRPPRLPRPRPRPREFPRP | 0.322
RRIRSRPPRLPRPRPRPREPPRP | 0.284
RRIRSRPPRLPRPRPRPREQPRP | 0.796
RRIRSRPPRLPRPRPRPRFMPRP | -0.211

Sequence | shrunken log2 fold change
RRIRSRPPRLPRPRPRPRFSPRP | 0.44
RRIRSRPPRLPRPRPRPRGEPRP | 0.754
RRIRSRPPRLPRPRPRPRHVPRP | -0.0732
RRIRSRPPRLPRPRPRPRHWPRP | 0.618
RRIRSRPPRLPRPRPRPRIPPRP | -0.179
RRIRSRPPRLPRPRPRPRIQPRP | -0.00704
RRIRSRPPRLPRPRPRPRIVPRP | -0.174
RRIRSRPPRLPRPRPRPRLGPRP | 0.468
RRIRSRPPRLPRPRPRPRLQPRP | 0.307
RRIRSRPPRLPRPRPRPRLVPRP | 0.356
RRIRSRPPRLPRPRPRPRMIPRP | -0.086
RRIRSRPPRLPRPRPRPRNDPRP | -0.181
RRIRSRPPRLPRPRPRPRPIPRP | -0.0533
RRIRSRPPRLPRPRPRPRPKPRP | 0.518
RRIRSRPPRLPRPRPRPRQLPRP | 0.0648
RRIRSRPPRLPRPRPRPRQYPRP | -0.274
RRIRSRPPRLPRPRPRPRSAPRP | 0.392
RRIRSRPPRLPRPRPRPRSQPRP | 0.169
RRIRSRPPRLPRPRPRPRSVPRP | 0.0603
RRIRSRPPRLPRPRPRPRTGPRP | 0.185
RRIRSRPPRLPRPRPRPRTHPRP | 0.181
RRIRSRPPRLPRPRPRPRTMPRP | 0.108

Sequence | shrunken log2 fold change
RRIRSRPPRLPRPRPRPRVEPRP | 0.183
RRIRSRPPRLPRPRPRPRVHPRP | 0.109
RRIRSRPPRLPRPRPRPRVKPRP | -0.224
RRIRSRPPRLPRPRPRPRWGPRP | 0.228
RRIRSRPPRLPRPRPRPRYHPRP | -0.339
RRIRSRPPRLPRPRPRPSAQPRP | 0.198
RRIRSRPPRLPRPRPRPSDVPRP | -0.221
RRIRSRPPRLPRPRPRPSEGPRP | -0.559
RRIRSRPPRLPRPRPRPSELPRP | -0.215
RRIRSRPPRLPRPRPRPSIEPRP | -0.013
RRIRSRPPRLPRPRPRPSIHPRP | -0.479
RRIRSRPPRLPRPRPRPSLNPRP | -0.142
RRIRSRPPRLPRPRPRPSLRPRP | -0.269
RRIRSRPPRLPRPRPRPSMIPRP | -0.625
RRIRSRPPRLPRPRPRPSMWPRP | 0.149
RRIRSRPPRLPRPRPRPSNIPRP | -0.484
RRIRSRPPRLPRPRPRPSQKPRP | -0.158
RRIRSRPPRLPRPRPRPSRMPRP | -0.205
RRIRSRPPRLPRPRPRPSRNPRP | -0.129
RRIRSRPPRLPRPRPRPSRWPRP | 0.188
RRIRSRPPRLPRPRPRPSTCPRP | 0.0296
RRIRSRPPRLPRPRPRPSTEPRP | -0.0608

Sequence | shrunken log2 fold change
RRIRSRPPRLPRPRPRPSTKPRP | -0.00791
RRIRSRPPRLPRPRPRPSTNPRP | -0.546
RRIRSRPPRLPRPRPRPSTTPRP | -0.433
RRIRSRPPRLPRPRPRPSWAPRP | -0.0813
RRIRSRPPRLPRPRPRPSWKPRP | -0.0985
RRIRSRPPRLPRPRPRPSWTPRP | -0.299
RRIRSRPPRLPRPRPRPTALPRP | 0.14
RRIRSRPPRLPRPRPRPTCCPRP | 0.164
RRIRSRPPRLPRPRPRPTDTPRP | -0.214
RRIRSRPPRLPRPRPRPTEYPRP | -0.206
RRIRSRPPRLPRPRPRPTFWPRP | 0.536
RRIRSRPPRLPRPRPRPTGCPRP | 0.159
RRIRSRPPRLPRPRPRPTGDPRP | 0.353
RRIRSRPPRLPRPRPRPTGPPRP | -0.0769
RRIRSRPPRLPRPRPRPTHAPRP | 0.368
RRIRSRPPRLPRPRPRPTHDPRP | 0.221
RRIRSRPPRLPRPRPRPTHTPRP | 0.106
RRIRSRPPRLPRPRPRPTIAPRP | 0.105
RRIRSRPPRLPRPRPRPTLWPRP | 0.448
RRIRSRPPRLPRPRPRPTNCPRP | 0.0777
RRIRSRPPRLPRPRPRPTNYPRP | -0.44
